Here are results for one molecule from patent US20230295308A1, “ANTAGONISTIC BIPARATOPIC ANTIBODIES THAT SPECIFICALLY BIND FIBROBLAST GROWTH FACTOR RECEPTOR 2 AND METHODS OF USING SAME” (The Broad Institute, Inc., priority 2020, published 2023).

The subject of experiment [1] is FGFR2-PHDGH fusion expressing BaF3 cells. Briefly: growth of BaF3 cells expressing FGFR2-PHGDH fusion, absence of FGF ligands (FIG. 9). The following applies: absence of FGF ligands. In kind it is cell-based. Here is the method:
Antibodies A-F were tested to determine whether they could inhibit the ligand-induced growth of BaF3 cells expressing FGFR2IIIb. Antibodies C, D, and E, which bind FGFR2 Ig-2 and Ig-3, were effective in blocking ligand-induced growth of BaF3 cells expressing wild-type FGFR2IIIb (FIG. 8). The effects of antibodies A-F were then tested on BaF3 cells expressing FGFR2-PHDGH fusions. […] Antibody F inhibited the FGFR2-PHDGH activating fusion in BaF3 cells (FIG. 9).

The test system is the same in experiment [2]. Briefly: ligand stimulated (FGF10) growth of FGFR2-PHGDH fusion expressing BaF3 cells (FIG. 10). Type of experiment: cell-based. The following applies: FGF10 present. As for the experimental part:
FIG. 10 is a graph showing that antibodies C, D, E and F have activity against ligand stimulated growth of FGFR2-PHDGH fusion expressing BaF3 cells.
The growth of BaF3 cells expressing an FGFR2-PHDGH fusion was assayed in the presence of FGF ligand, FGF10. Antibodies C, D, E and F inhibited ligand stimulated growth of FGFR2-PHDGH fusion expressing BaF3 cells (FIG. 10). Based on the results reported herein above, antagonistic biparatopic antibodies are made using the FGFR2 antibody combinations shown in FIG. 11A. These combinations result in increased growth inhibition effects in oncogenic or cancer cells (e.g., transformed BaF3 cells) that overexpressed […]. Thus, antibodies that bind to epitopes have increased inhibitory and killing effects against cancer cells. Designs for antagonistic biparatopic antibodies are shown at FIGS. 11B and 11C. Advantageously, including complementary mutations in VH-VL and CH1-CL on one-half of the biparatopic antibody results in preferential heterodimeric pairing between two different chains rather than chains from the other half of the same antibody. Alternatively, a linker method is used to create scFab, scFv, or DuoBodies. In this method two antibody chains are each generated in different cells and mixed in vitro. Such methods are known in the art and described, for example, by K. Ding et al, March 2017, Appl. Microbiol. […]

Experiment [3] concerns BaF3 cells overexpressing FGFR2-PHGDH. Kind of experiment: combination of BGJ398 and anti-FGFR2 bivalent antibody, isobolograms and Loewe scores (FIGS. 14, 15). In kind it is cell-based. The following applies: absence of FGF10, treated for 5 days. The text has this: FIGS. 14B-14D provide isobolograms showing synergy between FGFR inhibitor and the anti-[…] bivalent antibody on the different days and supporting the results shown in FIG. 14A. FIG. 14B corresponds to 3 days after treatment with the BGJ398 inhibitor; FIG. 14C corresponds to 4 days after treatment with the BGJ398 inhibitor; and FIG. 14D corresponds to 5 days after treatment with the BGJ398 inhibitor. FIG. 14E provide Loewe scores showing synergy between the FGFR inhibitor and the anti-FGF2 bivalent antibody on the different days and supporting the results shown in FIG. 14A.
FIG. 15A presents charts showing synergy between the FGFR2 small molecule inhibitor BGJ398 and an anti-FGFR2 bivalent antibody (Antibody D) in the presence of FGF ligand (+FGF) in a cell-based assay using BaF3 cells overexpressing an FGFR2 fusion molecule (FGFR2-PHGDH) after 3, 4 and 5 days of treatment with the inhibitor and the antibody. […] FIGS. 15B-15D provide isobolograms showing synergy between the FGFR inhibitor and the anti-FGF2 bivalent antibody on the different days and supporting the results shown in FIG. 15A. FIG. 15B corresponds to 3 days after treatment with the BGJ398 inhibitor; FIG. 15C corresponds to 4 days after treatment with the BGJ398 inhibitor; and FIG. 15D corresponds to 5 days after treatment with the BGJ398 inhibitor. […]

The target in the next experiment is FGFR2b alpha IIIb (Homo sapiens, UniProt P21802). Briefly: Surface Plasmon Resonance (SPR) binding. The conditions noted are these: FGFR2b alpha IIIb antigen. An excerpt:
FIGS. 17A-17C provide a schematic and tabular data related to assessments made to compare the avidity of biparatopic antibodies to that of their parental (bivalent monospecific) antibodies.
Surface Plasmon Resonance (SPR) as known in the art was used to determine the binding affinities of biparatopic antibodies. The SPR-based binding method involves immobilization of a ligand (antibody) on the surface of a sensor chip. The binding partner of interest or an analyte (FGFR2 ECD) flow through the flow channel. Different concentrations of an analyte flow over the ligand, and the interactions of ligand-analyte can be characterized. The SPR signal originates from changes in the refractive index of the […] at the surface of the sensor chip. The increase in mass associated with a binding event causes a proportional increase in the refractive index, which is observed as a change in response-resonance signal. In brief, for the experiments using the antibodies described herein, the SPR assay was carried out by immobilizing antibodies (used as […]) at a concentration ranging from 1-1000 nM and flow-through FGFR2b alpha IIIb antigen (used as […]). The antibody kinetic data for the interaction with FGFR2b alpha IIb antigen were fitted to the 2-state and 1-1 binding models using Biocore software. The mean and standard deviation KD values are derived from at least three independent runs.
Using SPR, the kinetics of 6 monospecific and 13 biparatopic antibodies for binding to a single antigen, FGFR2b alpha IIb, was measured so as to compare avidity of the biparatopic antibodies to their parental antibodies. Without wishing to be bound by theory, it was expected that the biparatopic antibodies would bind to the FGFR2 antigen more tightly than their parental antibodies and that the tighter binding biparatopic antibodies among the antibodies that were assessed would be more efficient in blocking FGFR2 dimerization (FIG. 17A), thereby leading to inhibition or blocking of constitutive FGFR2 signaling and/or oncogenic transformation. […]

The target in experiment [4] is FGFR2 on SNU-16 gastric cancer cell line with FGFR2 amplification (UniProt P21802). Kind of experiment: row 'Kd (nM) (FACS)'; FACS on SNU-16 cells.
Experiment [5] has the same target. Briefly: FACS on SNU-16 cells, % cells with FITC+ [cont.].
In experiment [6] the target is FGFR2b alpha IIIb antigen (UniProt P21802). Briefly: SPR (Biacore), antibody on chip, FGFR2b alpha IIIb antigen. (In SPR one partner is held on a chip, and binding of the other changes the refractive index at the surface.)
Experiment [7] concerns the target FGFR2 on SNU-16 gastric cancer cell line with FGFR2 amplification (UniProt P21802). Kind of experiment: FACS on SNU-16 cells, % No. of cells with FITC+ [cont.].
Experiment [8] has as its target FGFR2b alpha IIIb antigen (UniProt P21802). Briefly: SPR (Biacore), antibody immobilized, FGFR2b alpha IIIb in flow.
Experiment [9] has as its target FGFR2 on SNU-16 gastric cancer cell line with FGFR2 amplification (UniProt P21802). Kind of experiment: FACS on SNU-16 cells, % cells with FITC+ against log antibody concentration; Kd printed in the legend box [cont.].
For a further experiment, the target named is T1, FGFR2IIIb.
T1 construct: also called purified FGFR2IIIb
T1 chain: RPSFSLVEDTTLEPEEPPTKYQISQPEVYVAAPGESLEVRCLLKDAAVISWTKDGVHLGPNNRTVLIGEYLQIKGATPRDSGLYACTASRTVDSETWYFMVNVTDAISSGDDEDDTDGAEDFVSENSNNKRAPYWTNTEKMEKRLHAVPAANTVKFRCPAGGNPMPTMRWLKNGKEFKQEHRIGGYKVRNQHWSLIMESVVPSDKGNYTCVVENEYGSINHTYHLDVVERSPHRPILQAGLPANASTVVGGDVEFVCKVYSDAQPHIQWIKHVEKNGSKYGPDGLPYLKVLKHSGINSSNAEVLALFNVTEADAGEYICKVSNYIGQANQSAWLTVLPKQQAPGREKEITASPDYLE
Kind of experiment: row 'Kd (nM) (patent)', value quoted from the source patent; method: solution equilibrium titration (SET)/ELISA+ECL-FGFR2IIIb. In general terms: ELISA stands for enzyme-linked immunosorbent assay.

Entries after “also recorded” stand apart in the source; their conditions may differ.

B1: 12433 (antibody, V domains shown)
VH: QVQLVQSGAEVKKPGESLKISCKGSGYSFTNYYIHWVRQMPGKGLEWMGAIYPDNSDTTYSPSFQGQVTISADKSISTAYLQWSSLKASDTAMYYCARGADIWGQGTLVTVSS
VL: DIQMTQSPSSLSASVGDRVTITCRASQDIDPYLSNWYQQKPGKAPKLLIYDASNLQSGVPSRFSGSGSGTDFTLTISSLQPEDFATYYCQQTTSHPYTFGQGTKVEIK
notes: the duobody scheme implies IgG1 with K409R or F405L; also called Antibody F; N12433
Turning to B1, the “inhibitory activity against the FGFR2-PHGDH activating fusion in BaF3 cells” value in experiment [1] is recorded as “inhibitory activity; also recorded: inhibited”. Moreover, in experiment [2], the “inhibition of ligand stimulated growth of FGFR2-PHGDH fusion expressing BaF3 cells” value is recorded as “have activity; also recorded: inhibited”. The “synergy with BGJ398 in inhibiting FGFR2-PHGDH driven BaF3 cell growth” value in [3] is listed as “synergizes”. Also, the Kd – broadly, the equilibrium constant for the complex coming apart – with FGFR2b alpha IIIb stood at 7.5 nM; in experiment [4] it was 8.81 nM; in [6], 7.5 nM; in experiment [9], 8.81 nM; in the experiment with FGFR2IIIb, 5.6 nM. Moreover, the EC50 (read off the curve) in experiment [5] and in experiment [7] was 1 µg/mL each time. Further, in [8], the Binding Stoichiometry came out at 2.1.
